Experimental data published in the nanobody polyreactivity screen of Harvey et al. (2022).

Assay: yeast display, Sf9 membrane polyspecificity reagent, FACS + sequencing; frameworks hold sequencing errors
Outline: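 In a synthetic yeast display library (Saccharomyces cerevisiae BJ5465), nanobody expression was induced with galactose for 36–48 hours. FACS gates were set low and high (top ~1%) using anti-HA fluorescence for expression and streptavidin fluorescence for binding of the Sf9 membrane reagent. Each polyreactivity label is drawn from the gate of origin.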

Sequence | polyreactivity (PSR sort gate)
QVQLVESGGGLVQAGGSLRLSCAASGVIFYVYAMGWYRQAPGKERELVAAISADGGITYYADSVKGRFTISRDNAKNTVYLQMNSLKPEDTAVYYCAADYYGSVQGGIQYGYYYWGQGTQVTVSS | low polyreactivity
QVQLVESGGGLVQAGGSLRLSCAASGSISRYAMGWSRQAPGKERELVAAITRSGGSTHYADSVKGRFTISRDNAKNTVYLQMNSLKPEDTAVYYCATRYYRGVIRYPYDSWGQGTQVTVSS | high polyreactivity
QVQLVESGGGLVQAGGSLRLSCAASGFIIYSYAMGWYRQAPGKERELVAVISSRGGTTYYADSVKGRFTISRDNAKNTVYLQMNSLKPEDTAVYYCARDDYGTLVKLYVRCFNYWGQGTQVTVSS | low polyreactivity
QVQLVESGGGLVQAGGSLRLSCASSGSTFWFYAMGWYRQAPGKERELVAAITRSAGSTYYADSVKGRFTISRDNAKNTVYLQMNSLKPEGTAVYYCAAQRESLYGGFDYWGQGTQVTVSS | low polyreactivity
QVQLVESGGGLVQAGGSLRLSCAASGGIFNINAMGWYRQAPGKERELVASIRGSGGRTYYADSVKGRFTISRDNAKNTVYLQMNSLKPEDTAVYYCNAESYSTWSFGHRYEYDYWGQGTQVTVSS | low polyreactivity
QVQLVESGGGLVQAGGSLRLSCAASGRIFGKNAMGWYRQAPGKERELVAAITGSGGNTYYADSVKGRFTISRDNAKNTVYLQMNSLKPEDTAVYYCNTSPRFRRYPDYDYWGQGTQVTVSS | high polyreactivity
QVQLVESGGGLVQAGGSLRLSCAASGSTFYDNAMGWYRQAPGKERELVARIRWSGVRTYYADSVKGRFTISRDNAKNTVYLQMISLKPEDTAVYYCAAGRPRPHWWSLDYYYWGQGTQVTVSS | low polyreactivity
QVQLVESGGGLVQAGASLRLSCAASGSISKSYAMGWYRQAPGKERELVAAISWRGGSTYADSVKGRFTISRDNAKNTVYLQMNSLKPEDTAVYYCAATNYGTFWGGQSERYDYWGQGTQLTVSS | low polyreactivity
QVQLVESGGGLVQAGGSLRLSCAASGLTFAKYAMGWYRQEPGKEREFVAAITYSGGTTYYADSVKGRFTISRDNAKNTVYLQMNSLKPEDTAVYYCNTRSTLGYYWGQGTQVTVSS | high polyreactivity
QVQLVESGGGLVQAGGSLRLSCAASGFTFDFYDMGWYRQAPGKERELVAAISWDGGTTYYADSVKGRFTISRDNAKNTVYLQMNSLKPEDTAVYYCAADDWVYVPTRAWYLYEYWGQGTQVTVSS | low polyreactivity
QVQLVESGGGLVQAGGSLRISCAASGRIFSGYAMGWYRQAPGKERELVAAITSGGSTNYADSVKGRFTISRDNAKNTVYLQMNSLKPEDTAVYYCAADSREVSTTAYYYWGQGTQVTVSS | low polyreactivity
QVQLVESGGGLVQAGGSLRLSCAASGSIFYRNAMGWYRQAPGKERELVAAISSGTSTYYADSVKGRFTISRDNAKNTVYLQMNSLKPEDTAVYYCAKQYAFVPWWSRYHGELDYWGQGTQVTVSS | low polyreactivity
QVQLVESGGGLVQAGGSLRLSCAASGSTFYYYAMGWYRQAPGKERELVAAITKSGGSTYYADSVKGRFTISGDNAKNTVYLQMNTLKPEDTAVYYCAAYLRSGYKFDYWGQGTQVTVSS | low polyreactivity
QVQLEESGGGLVQAGGSLRISCAASGRTFRRYAMGWYRQAPGKERELVATISRGGSTYYADSVKGRFTISRDNAKNTVYLQMNSLKPEDTAVFYCAAQRQVIYASEENYWGQGTQVTVSS | high polyreactivity
QVQIVESGGGLVQAGGSLRLTCAASGLISTYYVMGWYRQAPGKERELVAAIRASDASTYYADSVKGRFTISRDNAKNTVYLQMNSLKPEDTAVYYCATDSYYVDDTEYDYWGQGTQVTVSS | low polyreactivity
QVQLVESGGGLVQAGGSLRLSCAASGITFSNSAMGWYRQAPGKERELVASITRRGTRTYYADSVKGRFTISRDNAKNTVYLQMNSLKPEDTAVYYCNRSFYSWIDLIYGGYDYWGQGTQVTVSS | high polyreactivity
QVQLVESGGGLVQAGGSLRLAVLPPELTSTLNDMGWYRQAPGKERELVAAITRGGSTNYADSVKGRFTISRDNAKYTFYLQMNSMKPEDSAVYYCAAPYAGLRDGGDYWGQGTQVTVSS | low polyreactivity
QVQLVDSGGGLVQAGGSLSLSCAASGRIFPYNAMGWYRQAPGKERELVAGISRTGGSTYYADSVKGRFTISRDNAKNTVYLQKNCLKTEDTAAYYCGARPGAHPDRLDYWGQGTQVTVSS | low polyreactivity
QVQLEESGGGLVQAGGSLRLSCAASGSIFARNAMGWYRQAPGNERELVAAISTGGGSTYYADSVKGRFTISRDNAKNSVYLQMKSLKPEDTAVYYCNAGDTQIRFYYWGQGTQVSVSS | low polyreactivity
QVQLVESGGGLVQAGGSLRLSCAASGRTYVRDTMGWYRQAPGQERQLVAAITWSGGSTYYADSVKGRFTISRDNAKNTVYLQMNSLKPEDTAVYYCARRYSPHTSVSYYSWGQGNQVTVSS | high polyreactivity
QVQLVESGGGLVQAGGSLRISCAASGRTFARYAMGWYRQAPGKERELVAAISRSGSTYYADSVKGRFTISRDNAKNTVYLQMNSLKPEDTAVYFCAKDTRFAGSYKYYYWGQGTQVTVSS | high polyreactivity
QVQLVETWGGLVQAGGSLRLSCPASGSIFPRKAMGWYRQAPGKERELVAGISSGGSTNYADSVKGRFTISRDNAKNTVYLQMNSLKPEDTAVYYCAARQWIRNLGFGYSIYNYWGQGTQVTVSS | high polyreactivity

Sequence | polyreactivity (PSR sort gate)
QVQLVESGGGLVQAGGSLRLSCAASGSTFNWNAMGWYRPAPGKERELVAAISRSGGRTSYADSVKGRFTISRDNAKNTVYLQMNSLKPEDTAVYYCAAEKVGTRPSRDYDYWGQGTQVTVSS | high polyreactivity
QVHLVESGGGLFQAGGSLRLRCAASGFTFASNAMGWYIQAPGKERELVAAITRSGGSTFYADSVKGRFTISRDNAKNTVYLQMKSLKPEDTAVYYCNAAPYGFGWRVRAFTGYDYWGQGTQVTVSS | low polyreactivity
QVQLVESGGGLVQAGGSLRLSCAASGRIFRRYAMGWYRQAPGKERELVASISSGGSTNYADSVKGRFTISRDNAKNTVYLQMNSLKPEDTAVYYCNVYYGYFRSRYGYWGQGTQVTVSS | high polyreactivity
QVQLVESGGGLVQAGGSLRLSCAPSGSTFQYYAMGWYRQAPGKESELVATITRRGDSTYYADSVKGRFTISRDSAKNTVYFQMNSLKPEDTAVYYCATRYWRSGYDWPYGSWGQGTQETVSS | high polyreactivity
QVQLVESGGGLVQAGGSLRLSCAASGITFSDNTMGWYRQAPGKERELVAAISWRGGLTYYADSVKGRFTISRDNAKNTVYLQMNSVKPEDTAVYYCIAVTSSKARYSSYDYWGQGTQVTVSS | high polyreactivity
QVQLVESGGGLVQAGASLRLSCAASGITFYSYGMGWYRQAPGKERELVAAISGSGTTTYADSVKGRFTISRDNAKNPVYLQMNSLKPEDTAVYYCAAVARYPRWHHYYWGQGTQVTVSS | low polyreactivity
QVQLVESGGGLVQAGGSLRLSCAASGSIIGYYAMGWYRQAPGKDRELVAAISWSDGSTYYAVSVKGRFTISRDNAKNTVFLQMNSLKPEVTAVYYCAARFTPYITSDDGHYDYWGQGTQVTVSA | low polyreactivity
QVQLVESGGRLVQAGGSLRLSCASSGRTFYPNAMGWYRHAPGKESELVAGIRSSGDSTYYADSVKGRFTISRDNAKNTVYLQMNSLKPEDTAVYYCNRDLTPSYDYWGQCTQVTVSS | low polyreactivity
QVQLVESGAGLVQAGGSLRLSCAASGRTFWWYAMGWDRQAPGKERELVADINGSGGSTYYADSVKGRFTISRDNAKNTVYLQMICLKPEDTAVYFCAADYYRYIHSVVYSIYDYWGQGTQVTVSS | low polyreactivity
QVQLVESGGGLVQAGGSLRLSCAASGRIFTDYTMGWYRQAPGKERELVAAISYSGGSTYYADSVKGRFTISRDNAKNSVYLQMNSLKPEDTAVYYCNRDPQKYRWIPRYDYWGHGTQVTVSS | low polyreactivity
QVQLVESGGGLVQAGGSLRLSCAASGSIFSTYVMGWYRQAPGKERELVAAITVSVGSTYYADSVKGRFTISRDNAKNTVYLQMNSLKPEDTAVYYCAAYGGTGYPFDAYYHDYDYWGQGTQVSVSS | low polyreactivity
QVQLVESGGGLVQAGGSLRLSCAASGSTFYYYAMGWYRQAPGKERELVASISASGGNTYYADSVKGRFTISRDNAKNTVYLQMNSLKPEDTAVYYCAARARRSQSISLKYYYWGQGTQVTVSS | high polyreactivity
QVQLVESGGGLVQAGGSLRLICAASGSIFVYNAMGWYRQAPGKERELVAAISYSGGRTYYADSVKGRFTISRDNAKNTVYLQMNSLKPEDTAVYYCAARSQRHKLSREYNYWGQGTQVTVSS | high polyreactivity
QVQLVESGGGLVQAGGSLRLSCAASGFILPIYAMGWYRQAPGKEREFVAAITWTGGSTYYADSVKGRFTISRDTAKNNVFLQIHSLKPEDTAVYYCAKRYYLRGYGRYYYWGQGTQVTVSS | high polyreactivity
QVQLVESGVGLVQAGGSLRLSCAASGRIFIKYAMGWYRQAPGKEREFVAAISGRGGSTYYADSVKGRFTISRDNAKNTVYLQMNSLKPEDTAVYYCAKRFFSSGTAAGMYYWGQGTQVTVSS | high polyreactivity
QVQLVESGGGLVQAGGSLRLSCAASGRTFAGYAMGWYRQAPGKERELVAGIRRSGDSTYYADSVKGRFTISRDNAKNTVYLQMNSLKPEDTAVYYCAAAPISKYGPYRGTGYRMGYWGQGTQVTVSS | high polyreactivity
QVQLVESGGGLVQAGGSLRLSCAASGSIFDRYAMGWYRKAPGKERELVASITYSGGSTYYADSVKGRFTISRDNAKNTVYLQMKSLKPEDTAVYYCAKVIRLVGDYDYWGQGTQVTVSS | low polyreactivity
QVQLVESGGGLVQAGGSLRLSCAASGLIFKVYAMGWYRQAPGKEWELVAAITYSGGSTDYADSVKGRFTISRDNAKNTVNLQMNSLKPEDTAVYYCNVEKVGHVNSYGYDYWGQGTQVTVSS | low polyreactivity
QVQLVESGGGLVQAGGSLRLSCAASGSTFSYYAMGWYRQAPGKEREFVAAISRSGGRTYYADSVKGRFKISRDNAKNTVYLQLNSLKPEDTAVYYCATVYYYDFSRTHPWPGDYWGQGTQVTVSS | high polyreactivity
QVQLVESGGGLVQAGGSLRLSCAASGSTLSANAMGWYRQAPGKERELVAAISWNGGSTYYADSVKGRFTISRDNAKNTVYLQMNSLKPEDTAVYYCAAEYIVTYEYWYFGYDYWGQGTQVTVSS | low polyreactivity
QVQLVESGGGLVQAGGSLRLSCAASGSIFVNNALGWDRQAPGKDWELVAAISSRGGSTYYADSVKGRFTISRDNAKNTVYLQMHSLKPEDTAVYYCAAEYDGPYYSFYPEQRYYWGQGNQVTVSS | low polyreactivity
